Measured values: PMC4791140 (Molecular Biology of the Cell, 2016)

Molecular target: T1, MBP-tagged WHAMM membrane-interaction domain (WMD) (human, UniProt Q8TF30 1-260)
T1 sequence (looked up): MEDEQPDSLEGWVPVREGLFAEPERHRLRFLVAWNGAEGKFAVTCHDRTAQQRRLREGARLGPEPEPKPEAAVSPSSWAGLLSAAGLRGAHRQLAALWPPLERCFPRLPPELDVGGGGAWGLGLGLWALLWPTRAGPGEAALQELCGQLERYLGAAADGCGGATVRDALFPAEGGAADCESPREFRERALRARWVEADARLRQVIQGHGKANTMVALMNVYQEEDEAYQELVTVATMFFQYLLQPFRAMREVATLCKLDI
Assay: pull-down

B1: GST-Rab1a, membrane-extracted prenylated form (Rab1(M)) (natural protein)
chain: not shown
modifications: prenylated (residues not stated)
  binding result: binds
